# Assay results: publication PMC6368630
# Assays:
# Assay in all cases: BRET (mG protein recruitment) in HEK293 cells
# Venus-tagged mGs = conditions: highest WNT-5A concentration shown (about log 2.5-3 ng/ml); n = 8; mean ± s.e.m.; parent: est. 100.1; read off a plot
# Venus-tagged mGsi = conditions: mean ± s.e.m., read off a plot
# Venus-tagged mG13 = conditions: n = 6, mean ± s.e.m., read off a plot
# Venus-tagged mGsq = conditions: highest WNT-5A concentration shown (about log 3 ng/ml); n = 5; mean ± s.e.m.; parent: est. 101; read off a plot
substance,measurement,setting,value
SNAP-FZD7-Rluc8 (from UniProt O75084) R470A,response,Venus-tagged mGs,102 % of vehicle
mouse SMO-Rluc8 (from UniProt P56726) R455A,response,"Venus-tagged mGsi; SAG alone, at the peak of the bell-shaped curve (about log -9.5 M), n = 6, parent: est. 100.9",102 % of vehicle
SNAP-FZD6-Rluc8 (from UniProt O60353) R416A,response,"Venus-tagged mGsi; highest WNT-5A concentration shown (about log 3.5 ng/ml), wild type n = 7, R416A n = 6, parent: est. 104",109 % of vehicle
hFZD4-Nluc (from UniProt Q9ULV1) K436A,response,"Venus-tagged mG13; highest WNT-5A concentration shown (about log 3-3.5 ng/ml), parent: est. 105.5",106 % of vehicle
same,response,"Venus-tagged mG13; second-highest WNT-5A concentration shown (about log 2.5 ng/ml), parent: est. 100.0",103 % of vehicle
SNAP-FZD5-Rluc8 (from UniProt Q13467) R449A,response,Venus-tagged mGsq,103 % of vehicle
